Measurements as given in US20230002798A1, “PROCESS FOR THE PREPARATION OF A FERMENTABLE SUGAR COMPOSITION AND THE FERMENTATION THEREOF” (WeissBioTech GmbH, priority 2019, published 2023).

Tests used:
[1] = SSF of maltodextrins with added panose, 24 h (Example 1); design: species or system Yeast (Deltaferm® AL-18); settings: SSF 24 h; for panose concentration reduced by: 20 g/L panose added; for ethanol concentration increase by % compared to the negative control / ethanol concentration increase compared to the negative control: 300 g/L maltodextrin + 20 g/L panose, enzyme 187.5 kU per ton; for ethanol concentration increase compared to the negative control: glucoamylase 40 g/t, 30° C., pH 4.8
Procedure: (§1) Quantification of ethanol yield Ethanol was quantified via HPLC. Samples were taken at the end of the SSF or during SSF at set time points. Samples were centrifuged for 1 min at 17,000 xg and sterile filtered (0.2 μm). The samples were frozen at −80° C. prior to measurements. Ethanol was determined with an Aminex 87C column (Bio-Rad Laboratories, Inc., US) on a Shimadzu HPLC system.
Residual sugars were quantified via HPLC. Samples were taken at the end of the SSF or during SSF at set time points. Samples were centrifuged for 1 min at 17 000 xg and sterile filtered (0.2 μm). The samples were frozen at −80° C. prior to measurements. Residual sugars were determined with a Zorbax NH2 column (Agilent Technologies, Inc., US) on an Agilent 1200 HPLC system.
For simultaneous saccharification and fermentation (abbreviated SSF), the oligo-1,6-glucosidases—either Agl1 or Gth—were used as crude Bacillus extract. Glucidex® Maltodextrin 12 (Roquette, FR) was dissolved in SSF-medium (5 g/L yeast extract, 5 g/L peptone, 1 g/L K2HIPO4, 0.5 g/L Mg2SO4 in 50 mM citrate buffer, pH 4.8) at 300 g/L. Panose, isomaltose, isomaltotriose, maltose, maltotriose, or trehalose was added at 20 g/L. As a positive control, 20 g/L glucose was added instead of the respective sugar. The SSF medium containing starch hydrolysate (maltodextrins) and sugars was sterile filtered (0.2 μm). Yeast (Deltaferm® AL-18, WeissBioTech GmbH, Ascheberg, Germany) was grown in YINaC medium (50 g/L dextrose, 5 g/L yeast extract, 5 g/L peptone, 1 g/L K2HPO4, 0.5 g/L Mg2SO4*7H2O, 2 g/L NH4Cl in 50 mM sodium citrate, pH 4.8) for 2 days at 37° C. and harvested by centrifugation for 15 min at 5100 rpm and 8° C. Pelleted yeast was added to the SSF-medium at a final concentration of 6 g/L. Glucoamylase (Deltazym® GA L-E5, WeissBioTech GmbH, Ascheberg, Germany) was added at 40 g per ton of dry starch equivalent. The enzyme product Agl1 or Gth was added up to a final concentration of 187.5 kU per ton of dry starch equivalent. For the SSF with trehalose, Agl1 or Gth was added at 937.5 kU per ton of dry starch equivalent. As a negative control, an SSF as described above was run without oligo-1,6-glucosidase/enzyme product. The SSF was performed at 30° C. without stirring or shaking for 24 h.

[2] = SSF of maltodextrins with added isomaltose, 24 h (Example 1); design: species or system Yeast (Deltaferm® AL-18); settings: SSF 24 h, maltodextrin + 20 g/L isomaltose, enzyme 187.5 kU per ton
Procedure: as §1
For simultaneous saccharification and fermentation (abbreviated SSF), the oligo-1,6-glucosidases—either Agl1 or Gth—were used as crude Bacillus extract. Glucidex® Maltodextrin 12 (Roquette, FR) was dissolved in SSF-medium (5 g/L yeast extract, 5 g/L peptone, 1 g/L K2HIPO4, 0.5 g/L Mg2SO4 in 50 mM citrate buffer, pH 4.8) at 300 g/L. Panose, isomaltose, isomaltotriose, maltose, maltotriose, or trehalose was added at 20 g/L. As a positive control, 20 g/L glucose was added instead of the respective sugar. The SSF medium containing starch hydrolysate (maltodextrins) and sugars was sterile filtered (0.2 μm). Yeast (Deltaferm® AL-18, WeissBioTech GmbH, Ascheberg, Germany) was grown in YINaC medium (50 g/L dextrose, 5 g/L yeast extract, 5 g/L peptone, 1 g/L K2HPO4, 0.5 g/L Mg2SO4*7H2O, 2 g/L NH4Cl in 50 mM sodium citrate, pH 4.8) for 2 days at 37° C. and harvested by centrifugation for 15 min at 5100 rpm and 8° C. […]

[3] = type: biochemical; settings: pH 5
Procedure: For activity measurements, the enzyme Agl1 was incubated with 10 mM and 50 mM panose, isomaltose, isomaltotriose, maltose, maltotriose, and trehalose for 10 min at 37° C. in Britton-Robertson buffer, pH 5. The enzyme Gth was incubated with 15 mM panose, 10 and 50 mM isomaltose, and 10, 50 and 100 mM maltotriose and trehalose for 10 min at 37° C. in Britton-Robertson buffer, pH 5. The reaction was stopped with 60 μL of 1 M NaOH, followed by addition of 60 μL of 1 M HCL. The amount of produced glucose was quantified using a standardized glucose assay kit (D-Glucose HK Assay Kit, Megazyme u.c. IRE). Glucose concentration was determined as specified in the instructions. Units are defined as the amount of enzyme required to produce one μmol of glucose per minute.

[4] = Process stability (SSF medium without starch, pH 4.8, 30° C., 72 h); type: physicochemical; settings: after 72 h at 30° C., pH 4.8, SSF medium without starch
Procedure: Process stability was determined by incubating the enzymes under process conditions (SSF medium without starch, pH 4.8, 30° C.) for 72 h and measuring the remaining activity.

Row | Molecule | panose concentration reduced by [1] [%] | ethanol concentration increase by % compared to the negative control [1] [%] | ethanol concentration increase compared to the negative control [1] | ethanol concentration increase by % compared to the negative control [2] [%] | ethanol concentration increase compared to the negative control [2] | substrate degradation (activity on trehalose) [3] | process stability (remaining activity) [4] [%]
1 | Agl1: oligo-1,6-glucosidase of Bifidobacterium breve UCC2003, amino acid sequence SEQ ID NO:1, expressed in Bacillus subtilis (protein, Bifidobacterium breve UCC2003; ACM89182.1 alpha-glucosidase 1) MMTTFNRAIIPDAIRTNGATPNPWWSNAVVYQIYPRSFQDTNGDGFGDLKGITSRLDYLADLGVDVLWLSPVYKSPQDDNGYDISDYQDIDPLFGTLDDMDELLAEAHKRGLKVVMDLVVNHTSDEHAWFEASKNKDDEHADWYWWRPARPGTTPGEPGSEPNQWGSYFGGSAWEYCPERGEYYLHQFSKKQPDLNWENPAVRRAVYDMMNWWLDRGIDGFRMDVITLISKRTDANGRLPGEYGSELDDLPVGEEGYSNPNPFCADGPRQDEFLKEMRREVFAGREGFLTVGEAPGITPVRNEHITNPANGELDMLFLFDHVDFDCDGVKWKPLPLDLPGFKRIMAGYQTAVENVGWASLFTGNHDQPRVVSRWGDDSSEESRVRSAKALGLMLHMHRGTPYVYQGEELGMTNAHFTSLDQYRDLESLNAYRQRVEEAKVQSPESMLAGIAARGRDNSRTPMQWDGSAYAGFTAPDAATEPWISVNPNHAEINAAGEFDDPDSVYAFYKKLIALRHNSSIVAAGEWQLIDADDAHVYAFTRTLGNERLLVVVNLSGRTVDLPRESTELIAGGVTEPDIILSTYDAPHTVVSLANRELDPWEAAAVQL | 96 | 92 | 1.01 percentage points (v/v) | 74 | 0.98 percentage points (v/v) | breaks down trehalose | 80
2 | Gth: oligo-1,6-glucosidase of Parageobacillus thermoglucosidasius, amino acid sequence SEQ ID NO:2, expressed in Bacillus subtilis (protein, listed as Parageobacillus thermoglucosidasius, WP_042386239.1 alpha-glucosidase) MERVWWKEAVVYQIYPRSFYDSNGDGIGDIRGIIAKLDYLKELGVDVVWLSPVYKSPNDDNGYDISDYRDIMDEFGTMADWKTMLEEMHKRGIKLVMDLVVNHTSDEHPWFIESRKSKDNPYRDYYIWRPGKNGKEPNNWESVFSGSAWEYDEMTGEYYLHLFSKKQPDLNWENPKVRREVYEMMKFWLDKGVDGFRMDVINMISKVPELPDGEPQSGKKYASGSRYYMNGPRVHEFLQEMNREVLSKYDIMTVGETPGVTPKEGILYTDPSRRELNMVFQFEHMDLDSGPGGKWDIRPWSLADLKKTMTKWQKELEGKGWNSLYLNNHDQPRAVSRFGDDGKYRVESAKMLATFLHMMQGTPYIYQGEEIGMTNVRFPSIEDYRDIETLNMYKERVEEYGEDPQEVMEKIYYKGRDNARTPMQWDDSENAGFTAGTPWIPVNPNYKEINVKAALEDPNSVFHYYKKLIQLRKQHDIIVYGTYDLILEDDPYIYAYTRTLGNEQLIVITNFSEKTPVFRLPDHIIYKTKELLISNYDVDEAEELKEIRLRPWEARVYKIRLP | 96 | 85 | 0.94 percentage points (v/v) | – | – | – | 80
